Here are results for 1 substance from publication PMC2990977.

The target of the assay is 80S ribosome from Thermomyces lanuginosus (Thermomyces lanuginosus). The assay is described as follows: co-sedimentation.

In turn, “eukaryotic elongation factor 2 (eEF2) from Thermomyces lanuginosus (natural protein)” returned an occupancy relative to Sordarin-trapped eEF2 of 60 to 70% and a percent eEF2 bound (GDP only) of 16%.
